The values that follow are results of earlier work, collected in publication PMC3509699.

Series [1] has as its target KCa3.1 (Homo sapiens) (UniProt O15554).
For series [2] the target is unchanged. This is another data set of the same source.
The target in series [3] is KV1.3 (Homo sapiens) (UniProt P22001).
For series [4] the target is unchanged. The source holds these as a separate data set.

pKd: −log10 of the molar value. Where two headings read alike, the source gives them in different places.

UniProt P22001, sequence (P22001 whole entry): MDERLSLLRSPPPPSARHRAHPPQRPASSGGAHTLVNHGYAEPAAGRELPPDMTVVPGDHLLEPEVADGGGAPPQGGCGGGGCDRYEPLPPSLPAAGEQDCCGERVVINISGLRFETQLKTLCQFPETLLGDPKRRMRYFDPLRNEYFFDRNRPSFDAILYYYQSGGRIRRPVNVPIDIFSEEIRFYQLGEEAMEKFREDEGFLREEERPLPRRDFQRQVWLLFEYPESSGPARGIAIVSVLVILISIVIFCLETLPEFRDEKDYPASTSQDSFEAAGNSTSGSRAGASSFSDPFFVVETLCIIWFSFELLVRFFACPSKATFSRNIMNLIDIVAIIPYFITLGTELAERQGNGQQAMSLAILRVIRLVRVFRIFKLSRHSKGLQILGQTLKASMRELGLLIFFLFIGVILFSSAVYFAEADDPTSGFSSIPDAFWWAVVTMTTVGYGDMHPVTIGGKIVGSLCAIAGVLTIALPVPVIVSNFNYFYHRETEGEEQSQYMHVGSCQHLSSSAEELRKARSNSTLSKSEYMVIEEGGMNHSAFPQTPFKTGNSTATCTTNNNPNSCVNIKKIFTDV
UniProt O15554, sequence (O15554 whole entry): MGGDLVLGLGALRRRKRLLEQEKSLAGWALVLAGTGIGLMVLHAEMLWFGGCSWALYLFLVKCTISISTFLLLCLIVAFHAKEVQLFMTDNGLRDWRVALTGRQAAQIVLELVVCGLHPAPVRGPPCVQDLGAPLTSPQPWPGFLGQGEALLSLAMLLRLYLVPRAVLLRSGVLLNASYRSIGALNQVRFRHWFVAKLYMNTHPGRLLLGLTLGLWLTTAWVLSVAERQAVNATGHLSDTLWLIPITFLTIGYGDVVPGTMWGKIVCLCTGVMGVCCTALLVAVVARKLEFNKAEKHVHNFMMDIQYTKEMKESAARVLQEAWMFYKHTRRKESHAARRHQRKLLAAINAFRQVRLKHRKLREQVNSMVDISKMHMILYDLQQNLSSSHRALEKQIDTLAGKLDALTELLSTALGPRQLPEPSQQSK

The term pKd denotes the negative decadic logarithm of the Kd, by convention in mol/L. For the substance Maurotoxin (MTX) (from UniProt P80719), the pKd with KCa3.1 (Homo sapiens) [1] is 9.00.

With “Charybdotoxin (ChTx) (from UniProt P13487)”, the pKd in the series with KCa3.1 (Homo sapiens) [2] was 8.30.

Turning to Margatoxin (from UniProt P40755), the pKd with KV1.3 (Homo sapiens) [3] is 9.96.

Consider BmKTX (from UniProt Q9NII7), for which, in the series with KV1.3 (Homo sapiens) [4], the negative logarithm of the Kd (pKd) is 9.70.
